Results reported in paper PMC5466061.

B1: (GGGTTA)8 (structured_DNA)
DNA: TCGAGGGTTAGGGTTAGGGTTAGGGTTAGGGTTAGGGTTAGGGTTAGGGTTAC
B2: hTert 1-12 (structured_DNA)
DNA: AGGGGAGGGGCTGGGAGGGCCCGGAGGGGGCTGGGCCGGGGACCCGGGAGGGGTCGGGACGGGGCGGGGT

target: nucleolin (NCL) (Homo sapiens, UniProt P19338 1-710); test: EMSA
Sequence (P19338 whole entry): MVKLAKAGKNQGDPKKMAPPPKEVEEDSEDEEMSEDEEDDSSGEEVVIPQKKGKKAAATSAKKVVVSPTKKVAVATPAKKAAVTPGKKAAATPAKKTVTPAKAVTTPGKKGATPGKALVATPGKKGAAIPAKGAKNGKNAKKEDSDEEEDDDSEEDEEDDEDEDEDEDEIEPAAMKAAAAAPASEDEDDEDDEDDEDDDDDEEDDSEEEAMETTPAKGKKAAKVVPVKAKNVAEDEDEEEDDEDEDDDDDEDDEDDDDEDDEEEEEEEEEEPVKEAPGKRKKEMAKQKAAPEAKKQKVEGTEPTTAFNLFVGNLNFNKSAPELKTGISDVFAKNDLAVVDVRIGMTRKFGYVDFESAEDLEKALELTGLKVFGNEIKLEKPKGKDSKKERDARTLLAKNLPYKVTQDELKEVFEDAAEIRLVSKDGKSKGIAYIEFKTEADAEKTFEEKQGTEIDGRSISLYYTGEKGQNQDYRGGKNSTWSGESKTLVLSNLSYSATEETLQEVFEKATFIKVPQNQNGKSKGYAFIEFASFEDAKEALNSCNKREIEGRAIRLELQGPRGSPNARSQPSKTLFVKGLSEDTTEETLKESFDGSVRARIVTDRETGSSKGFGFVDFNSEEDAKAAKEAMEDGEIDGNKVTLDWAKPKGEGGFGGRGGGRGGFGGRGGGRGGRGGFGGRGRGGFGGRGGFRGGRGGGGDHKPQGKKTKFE

Binding result, binds:
GGGTTTGGGTTTTTTTTTGGGTTTGGG (structured_DNA) [n5M3]
AGGGGCGGGCGCGGGAGGAAGGGGGCGGGAGCGGGGCTG (structured_DNA) [bcl-2]
GGGTTTGGGTTTGGGTTTTTTTTTGGG (structured_DNA) [n5M4]
B1
GGGTTAGGGTTAGGGTTAGGG (structured_DNA) [(GGGTTA)4]
GGGTTTGGGTTTGGGTTTGGGTTTGGG (structured_DNA) [(GGGTTT)5]
B2
GGGTTTGGGTTTGGGTTTGGGTTTGGGTTTGGGTTT (structured_DNA) [(GGGTTT)6]
GGGTGGGTGGGTGGG (structured_DNA) [111]
GGGTTAGGGTTAGGGTTAGGGTTAGGGTTAGGGTTA (structured_DNA) [(GGGTTA)6]
AGGGGGCTGGGCCGGGGACCCGGGAGGGGTCGGGACGGGGCGGGGT (structured_DNA) [hTert 5-12]
GGGTTTGGGTTTGGGTTTGGG (structured_DNA) [(GGGTTT)4 = 333]
GGGTTTTTTTTTGGGTTTGGGTTTGGG (structured_DNA) [n5M2]
GGGTTTGGGTTTGGGTTTGGGTTTGGGTTTGGGTTTGGGTTTGGGTTT (structured_DNA) [(GGGTTT)8]
TGGGGAGGGTGGGGAGGGTGGGGAAGG (structured_DNA) [c-myc]
